Reference: US20260317430 (published 2026)

Key:
[1] = biological target: T1, human FGFR2b extracellular domain (human, UniProt P21802); assay: BLI
[2] = biological target: human FGFR2b on KATO III cells (human, UniProt P21802); assay: FACS
mouse FGFR2b = biological target: T2, mouse FGFR2b (mouse, UniProt P21803); assay: BLI
T2 chain: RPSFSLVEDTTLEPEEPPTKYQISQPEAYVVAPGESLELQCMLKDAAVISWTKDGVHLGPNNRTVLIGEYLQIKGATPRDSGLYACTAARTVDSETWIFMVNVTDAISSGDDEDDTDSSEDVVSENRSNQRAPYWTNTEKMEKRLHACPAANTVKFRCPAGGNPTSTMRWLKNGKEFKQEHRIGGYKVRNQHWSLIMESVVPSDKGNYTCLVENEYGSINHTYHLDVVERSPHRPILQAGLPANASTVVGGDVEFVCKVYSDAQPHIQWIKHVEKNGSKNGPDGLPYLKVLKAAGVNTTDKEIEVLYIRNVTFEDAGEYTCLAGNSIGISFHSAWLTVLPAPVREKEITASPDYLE

[3] = biological target: T1, human FGFR2b extracellular domain; assay: ELISA

T1 sequence (P21802 22-377): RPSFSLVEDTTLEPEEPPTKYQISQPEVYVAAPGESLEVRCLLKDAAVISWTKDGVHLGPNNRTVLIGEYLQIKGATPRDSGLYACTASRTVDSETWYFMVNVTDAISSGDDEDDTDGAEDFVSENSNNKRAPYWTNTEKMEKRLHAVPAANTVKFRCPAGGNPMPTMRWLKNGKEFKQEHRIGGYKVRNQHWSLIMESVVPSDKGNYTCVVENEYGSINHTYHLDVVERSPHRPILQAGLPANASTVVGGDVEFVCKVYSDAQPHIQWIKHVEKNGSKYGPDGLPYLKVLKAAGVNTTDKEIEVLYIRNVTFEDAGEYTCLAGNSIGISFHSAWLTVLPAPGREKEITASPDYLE
Sequence of human FGFR2b on KATO III cells (P21802 22-377): as above

- Kd [1]: 11.1 nM
- EC50 [2]: 0.152 µg/mL
- Kd (mouse FGFR2b): 75.6 nM
- EC50 [3]: 0.0159 µg/mL
B1: 1C10 (antibody, V domains shown)
VH: QVQLQQSGAELVKPGASVKMSCKASGYTFRYYNMHWVKRTPGQGLEWIGLIYPDNGDTSYNQKFKGKATLTADTSSSTAYMQLSSLTSEDSAVYYCARGGLDYWGQGTSLTVSS
VL: DIVMTQSPASLSASVGETVTITCRASGNIHNYLAWYQQKQGKSPQLLVYNAKTLADGVPSRFSGSGSGTQYSLKINSLQPEDFGSYYCQHFWSTPYTFGGGTKLEMK
